The target in test [1] is cynomolgus c-Met expressed on BAF3 cells (cynomolgus monkey). Description: flow cytometry; competition with 0.5 nM biotinylated HGF on BAF3 cells with cynomolgus c-Met.
Test [2] concerns the target human c-Met, cell membrane expressed (A549, BxPC-3, myeloma cells) (human) (UniProt P08581). Description: cell-based or functional assay.
The target is the same in test [3]. Description: flow cytometry; competition with 1 nM biotinylated hHGF on A549 cells.

Chain of human c-Met, cell membrane expressed (A549, BxPC-3, myeloma cells) (human) (P08581 25-1390 limits assumed, form in doubt): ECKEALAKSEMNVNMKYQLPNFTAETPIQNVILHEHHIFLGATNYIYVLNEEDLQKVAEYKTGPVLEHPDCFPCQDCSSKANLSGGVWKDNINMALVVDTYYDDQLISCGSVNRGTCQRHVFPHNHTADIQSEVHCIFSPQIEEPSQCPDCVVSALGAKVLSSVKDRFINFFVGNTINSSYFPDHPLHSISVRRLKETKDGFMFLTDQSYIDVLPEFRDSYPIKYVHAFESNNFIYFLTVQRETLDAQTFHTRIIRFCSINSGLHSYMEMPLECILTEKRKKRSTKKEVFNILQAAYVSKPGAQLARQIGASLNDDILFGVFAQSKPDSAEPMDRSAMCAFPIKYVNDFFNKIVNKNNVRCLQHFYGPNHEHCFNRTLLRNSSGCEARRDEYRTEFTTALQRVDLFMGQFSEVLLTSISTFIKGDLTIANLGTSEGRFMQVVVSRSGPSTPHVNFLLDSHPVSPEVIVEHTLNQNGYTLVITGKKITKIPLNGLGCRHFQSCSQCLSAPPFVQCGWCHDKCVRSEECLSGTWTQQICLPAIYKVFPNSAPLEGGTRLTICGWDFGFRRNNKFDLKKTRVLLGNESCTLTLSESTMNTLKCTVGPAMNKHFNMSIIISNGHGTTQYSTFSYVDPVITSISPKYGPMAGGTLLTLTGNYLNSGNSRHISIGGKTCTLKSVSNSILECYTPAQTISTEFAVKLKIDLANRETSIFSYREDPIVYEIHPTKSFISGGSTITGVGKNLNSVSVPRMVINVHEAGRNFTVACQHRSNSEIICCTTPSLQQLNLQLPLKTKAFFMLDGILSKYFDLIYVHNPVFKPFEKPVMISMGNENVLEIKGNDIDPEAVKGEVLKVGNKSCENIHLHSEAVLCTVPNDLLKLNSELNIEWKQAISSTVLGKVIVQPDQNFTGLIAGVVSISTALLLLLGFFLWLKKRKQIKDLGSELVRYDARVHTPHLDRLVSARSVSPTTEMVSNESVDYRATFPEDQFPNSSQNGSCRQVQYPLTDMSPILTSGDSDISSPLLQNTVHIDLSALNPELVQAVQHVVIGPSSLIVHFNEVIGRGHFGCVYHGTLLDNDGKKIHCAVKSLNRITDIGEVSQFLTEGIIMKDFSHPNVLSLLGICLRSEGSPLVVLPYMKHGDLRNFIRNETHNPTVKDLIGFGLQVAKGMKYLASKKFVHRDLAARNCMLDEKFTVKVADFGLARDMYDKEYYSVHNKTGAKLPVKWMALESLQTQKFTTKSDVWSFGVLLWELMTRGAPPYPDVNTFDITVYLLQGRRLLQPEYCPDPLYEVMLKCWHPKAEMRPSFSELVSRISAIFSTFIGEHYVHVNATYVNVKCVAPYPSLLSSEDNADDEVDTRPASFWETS
Chain of cynomolgus c-Met expressed on BAF3 cells (cynomolgus monkey) (A0M8R7 25-1381 S170N/I621T limits assumed, form in doubt): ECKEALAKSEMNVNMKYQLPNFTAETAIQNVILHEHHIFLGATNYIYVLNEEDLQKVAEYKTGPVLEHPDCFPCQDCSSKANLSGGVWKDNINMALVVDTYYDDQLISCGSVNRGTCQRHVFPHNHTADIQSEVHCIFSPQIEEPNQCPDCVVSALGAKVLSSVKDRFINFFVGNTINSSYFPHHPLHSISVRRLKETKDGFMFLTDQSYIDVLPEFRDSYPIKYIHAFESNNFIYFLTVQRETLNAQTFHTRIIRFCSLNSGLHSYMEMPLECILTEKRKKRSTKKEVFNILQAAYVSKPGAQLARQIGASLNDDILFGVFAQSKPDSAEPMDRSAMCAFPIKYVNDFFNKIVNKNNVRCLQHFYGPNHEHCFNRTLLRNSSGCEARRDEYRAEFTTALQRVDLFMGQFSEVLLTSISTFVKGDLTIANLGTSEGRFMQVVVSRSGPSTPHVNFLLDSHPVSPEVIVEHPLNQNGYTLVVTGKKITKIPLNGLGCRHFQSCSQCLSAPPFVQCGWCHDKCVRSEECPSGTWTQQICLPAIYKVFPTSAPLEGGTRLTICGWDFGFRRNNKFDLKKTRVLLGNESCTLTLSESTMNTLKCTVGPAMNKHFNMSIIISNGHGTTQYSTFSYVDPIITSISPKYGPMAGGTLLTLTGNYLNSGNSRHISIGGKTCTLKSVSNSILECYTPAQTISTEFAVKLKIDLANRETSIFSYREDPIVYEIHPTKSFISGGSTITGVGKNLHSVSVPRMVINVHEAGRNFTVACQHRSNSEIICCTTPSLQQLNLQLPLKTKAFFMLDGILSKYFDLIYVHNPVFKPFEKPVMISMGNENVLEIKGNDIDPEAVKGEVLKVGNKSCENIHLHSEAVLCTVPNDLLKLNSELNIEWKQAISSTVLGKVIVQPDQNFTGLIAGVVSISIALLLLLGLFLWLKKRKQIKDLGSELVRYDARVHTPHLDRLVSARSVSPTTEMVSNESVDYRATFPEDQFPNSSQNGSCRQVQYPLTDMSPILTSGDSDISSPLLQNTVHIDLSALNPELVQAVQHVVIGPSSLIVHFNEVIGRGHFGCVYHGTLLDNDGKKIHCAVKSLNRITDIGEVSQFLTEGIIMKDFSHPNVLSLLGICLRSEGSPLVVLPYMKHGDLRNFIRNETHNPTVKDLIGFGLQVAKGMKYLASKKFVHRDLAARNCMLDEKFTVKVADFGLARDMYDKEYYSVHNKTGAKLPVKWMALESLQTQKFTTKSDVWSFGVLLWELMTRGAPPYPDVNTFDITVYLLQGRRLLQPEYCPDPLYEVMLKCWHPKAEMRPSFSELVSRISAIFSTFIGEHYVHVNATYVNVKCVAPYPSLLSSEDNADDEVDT

The term % inhibition denotes the drop in the measured response relative to a control, in per cent. Lower therefore signals little suppression. With anti-c-Met antibody 5D5, the % inhibition in test [1] and in test [3] was 100% in each case. In test [2], the c-Met phosphorylation without HGF (agonistic activity), A549 cells came to 37 nM.

In the case of “anti-c-Met antibody fragment 5D5 Fab from mAb”, in test [2], the % inhibition, HGF-dependent A549 cell migration came out at 112%; the % inhibition, HGF-dependent c-Met phosphorylation, Experiment 1 came to 96.4%; the % inhibition, HGF-dependent c-Met phosphorylation, Experiment 2 came out at 95.9%; the % inhibition, HGF-dependent proliferation of BxPC3 cells was found to be 94.8%. Besides, in test [2], the IC50, HGF-dependent c-Met phosphorylation, experiment 1 was found to be 10.4 nM; the IC50, HGF-dependent c-Met phosphorylation, experiment 2 turned out to be 9.09 nM; the IC50 ratio to 5D5 Fab, HGF-dependent A549 cell migration was 1; the IC50 ratio to 5D5 Fab, HGF-dependent c-Met phosphorylation, Experiment 1 was found to be 1. For the same substance, in test [2], the IC50 ratio to 5D5 Fab, HGF-dependent c-Met phosphorylation, Experiment 2 came to 1 and the IC50 ratio to 5D5 Fab, HGF-dependent proliferation of BxPC3 cells turned out to be 1.

The values above are taken from patent EP2747783B1.
